Changes are numbered by the printed parent chain.
B1: J142-z73/L180-k (antibody, human IgG4 S228P, kappa)
heavy: QVQLVQSGSELKKPGASVKVSCKASGYTFTDNNMDWVRQAPGQGLEWMGDINTRSGGSIYNEEFQDRVTMTIDKSTGTAYMELSSLRSEDTAVYYCARRRSYGYYHDEWGEGTLVTVSSASTKGPSVFPLAPCSRSTSESTAALGCLVKDYFPEPVTVSWNSGALTSGVHTFPAVLQSSGLYSLSSVVTVPSSSLGTKTYTCNVDHKPSNTKVDKRVESKYGPPCPPCPAPEFLGGPSVFLFPPKPKDTLMISRTPEVTCVVVDVSQEDPEVQFNWYVDGVEVHNAKTKPREEQFNSTYRVVSVLTVLHQDWLNGKEYKCKVSNKGLPSSIEKTISKAKGQPREPQVYTLPPSQEEMTKNQVSLTCLVKGFYPSDIAVEWESNGQPENNYKTTPPVLDSDGSFFLYSRLTVDKSRWQEGNVFSCSVMHEALHNRFTQESLSLSP
light: DIQMTQSPSSLSASVGDRVTITCKASRNIERNLAWYQQKPGQAPELLIYSASRKESGVPDRFSGSRYGTDFTLTISSLQPEDLATYYCQQYYSPPLTFGGGTKVEIKRTVAAPSVFIFPPSDEQLKSGTASVVCLLNNFYPREAKVQWKVDNALQSGNSQESVTEQDSKDSTYSLSSTLTLSKADYEKHKVYACEVTHQGLSSPVTKSFNRGEC
notes: also called homomeric antibody against FX
B2: J300-z107/L210-k (antibody, human IgG4 S228P, kappa)
heavy: B1 heavy with T69I, I72V, G77D, Y95H, R100K, H106L, K198Q, F295Y, R408K, F435Y
light: B1 light with L83I, Y92S
notes: Homomeric by-product in the culture medium of cells that express Q407-z106/J300-z107/L210-k; The H chain gene was made by linking z107 downstream of J300; also called homomeric antibody against FX

Experiments:
[1] = biological target: T1, Protein A (rProtein A Sepharose Fast Flow) (UniProt P38507 37-327); test: Protein A affinity chromatography (rProtein A Sepharose Fast Flow); the species is 3.2% of the Protein G-purified control but is not found in the pH 3.6 or the pH 2.7 elution fraction (cation exchange analysis)
T1 construct: Bought chromatography resin
Procedure: (§1) CM filtered through ϕ0.22-μm filter was loaded onto rProtein A Sepharose Fast Flow column (GE Healthcare) equilibrated with D-PBS. Washes 1 and 2 and Elutions 1 and 2 shown in Table 76 were carried out (Elution 1 alone was performed for Q407-z106/J300-z107/L210-k). […] The quantity of CM to be loaded was adjusted in a way that the quantity of the loaded antibody is 20 mg/ml resine. Fractions eluted under each condition were collected and the components contained in each elution fraction were identified by cation exchange chromatography analysis. […] Samples purified by batchwise elution were used as controls.
(§2) The values represent the area of elution peak expressed in percentage.

[2] = biological target: T1, Protein A (rProtein A Sepharose Fast …); test: Protein A affinity chromatography (rProtein A Sepharose Fast Flow); the species is 5.8% of the Protein G-purified control but is not found in the pH 3.6 elution fraction (cation exchange analysis)
Procedure: as §1, §2

Binder | binding result [1] | binding result [2]
B1 | no binding | 
B2 |  | no binding

Reference: US20180155451A1 (published 2018)
